Measurements reported in IntAct's records for PubMed 21455181.

B1: Sharpin (Homo sapiens), Q9H0F6 (parent)
chain: MAPPAGGAAAAASDLGSAAVLLAVHAAVRPLGAGPDAEAQLRRLQLSADPERPGRFRLELLGAGPGAVNLEWPLESVSYTIRGPTQHELQPPPGGPGTLSLHFLNPQEAQRWAVLVRGATVEGQNGSKSNSPPALGPEACPVSLPSPPEASTLKGPPPEADLPRSPGNLTEREELAGSLARAIAGGDEKGAAQVAAVLAQHRVALSVQLQEACFPPGPIRLQVTLEDAASAASAASSAHVALQVHPHCTVAALQEQVFSELGFPPAVQRWVIGRCLCVPERSLASYGVRQDGDPAFLYLLSAPREAPATGPSPQHPQKMDGELGRLFPPSLGLPPGPQPAASSLPSPLQPSWSCPSCTFINAPDRPGCEMCSTQRPCTWDPLAAAST

Variants of: B1
Details: with rnf31_human RNF31, Q96EP0
rnf31_human RNF31, Q96EP0, sequence (Q96EP0 whole entry): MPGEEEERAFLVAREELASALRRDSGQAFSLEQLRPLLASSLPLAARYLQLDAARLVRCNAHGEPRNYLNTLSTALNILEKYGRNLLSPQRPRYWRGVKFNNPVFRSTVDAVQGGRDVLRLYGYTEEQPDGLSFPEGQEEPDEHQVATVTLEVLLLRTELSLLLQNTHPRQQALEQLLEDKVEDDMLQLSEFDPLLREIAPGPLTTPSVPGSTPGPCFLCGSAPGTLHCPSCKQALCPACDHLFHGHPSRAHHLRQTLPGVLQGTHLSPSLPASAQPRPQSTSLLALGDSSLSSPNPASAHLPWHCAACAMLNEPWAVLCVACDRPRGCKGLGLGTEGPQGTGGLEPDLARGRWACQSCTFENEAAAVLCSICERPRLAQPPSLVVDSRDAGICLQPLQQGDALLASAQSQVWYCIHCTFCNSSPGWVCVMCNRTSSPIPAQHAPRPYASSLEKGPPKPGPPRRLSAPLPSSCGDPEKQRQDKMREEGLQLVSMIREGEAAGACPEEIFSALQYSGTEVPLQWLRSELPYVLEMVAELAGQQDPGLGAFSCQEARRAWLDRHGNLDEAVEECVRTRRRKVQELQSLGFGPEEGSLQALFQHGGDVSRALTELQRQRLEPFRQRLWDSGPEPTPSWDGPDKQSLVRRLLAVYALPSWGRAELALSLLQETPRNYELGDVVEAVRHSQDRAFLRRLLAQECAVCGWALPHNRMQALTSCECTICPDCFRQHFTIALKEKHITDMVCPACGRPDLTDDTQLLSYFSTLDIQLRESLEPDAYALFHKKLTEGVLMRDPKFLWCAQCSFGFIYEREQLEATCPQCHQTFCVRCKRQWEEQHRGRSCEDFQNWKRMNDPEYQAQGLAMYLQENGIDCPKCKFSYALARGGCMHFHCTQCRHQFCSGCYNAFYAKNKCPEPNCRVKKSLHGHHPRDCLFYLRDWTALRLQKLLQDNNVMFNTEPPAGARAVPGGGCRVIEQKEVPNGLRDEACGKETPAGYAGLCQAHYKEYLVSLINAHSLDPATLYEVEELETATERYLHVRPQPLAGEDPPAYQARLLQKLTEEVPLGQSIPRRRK

Variant	effect of a mutation on the interaction
I272A	disrupting interaction
